Data as given in patent EP4713370A2 (dated 2026).
One block for each binder: values may come before it.

Assays:
[1] = target: T1, human NKp46 expressed on cells (primary human NK cells; CHOK1-hNKp46 cells) (human, UniProt O76036 22-304); test: flow cytometry on CHOK1-hNKp46 cells, anti-human IgG Fc PE
T1 construct: whole, on cells; also called cell surface expressed NKp46; NCR1

[2] = target: T2, CD79b on target B cell lines (Ramos (CD79b+) cells; Daudi cells) (UniProt P40259 29-229, limits assumed); test: flow cytometry on Ramos cells, anti-human IgG Fc PE
T2 construct: whole, on cells; On cells CD79b stands in the B cell receptor complex with CD79a; also called Ramos (CD79+) cells; CD79b expression cells
T2 sequence (looked up): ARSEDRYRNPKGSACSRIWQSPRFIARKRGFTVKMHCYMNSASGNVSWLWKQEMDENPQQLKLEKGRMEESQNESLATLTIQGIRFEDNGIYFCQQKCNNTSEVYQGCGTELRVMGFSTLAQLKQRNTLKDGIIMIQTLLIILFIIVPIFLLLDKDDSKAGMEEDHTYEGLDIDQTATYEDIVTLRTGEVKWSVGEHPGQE

T1 sequence (O76036 22-304): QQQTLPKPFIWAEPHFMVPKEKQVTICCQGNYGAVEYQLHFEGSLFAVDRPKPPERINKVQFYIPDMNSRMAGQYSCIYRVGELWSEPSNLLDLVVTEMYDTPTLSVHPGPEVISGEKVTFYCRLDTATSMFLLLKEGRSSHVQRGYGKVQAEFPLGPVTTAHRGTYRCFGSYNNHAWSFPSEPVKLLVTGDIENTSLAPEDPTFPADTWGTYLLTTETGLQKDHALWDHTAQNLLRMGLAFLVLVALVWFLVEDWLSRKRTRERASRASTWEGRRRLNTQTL

binding result [1]: binds
binding result [2]: binds
B1: ch44G2/ch6-1 (LC) Fc-optimized (bispecific antibody, human IgG1, kappa)
heavy: QSVRETGGGLVQPGGSLKLSCKASGFTINIDYWISWVRQAPGKGLEWIGIIDPGDGTTYFAIWVNGRFTISFDNTQNTVDLQMNSLTAADTATYFCVREFSASAYQYDLWGPGTLVTVSSASTKGPSVFPLAPSSKSTSGGTAALGCLVKDYFPEPVTVSWNSGALTSGVHTFPAVLQSSGLYSLSSVVTVPSSSLGTQTYICNVNHKPSNTKVDKRVEPKSCDKTHTCPPCPAPELLAGPSVFLFPPKPKDTLMISRTPEVTCVVVDVSHEDPEVKFNWYVDGVEVHNAKTKPREEQYNSTYRVVSVLTVLHQDWLNGKEYKCKVSNKALPLPEEKTISKAKGQPREPQVYTLPPSRDELTKNQVSLTCLVKGFYPSDIAVEWESNGQPENNYKTTPPVLDSDGSFFLYSKLTVDKSRWQQGNVFSCSVMHEALHNHYTQKSLSLSPGK
light: DLVMTQTPSSVSAAVGGTVSINCRASEDIENYLAWYQQKPGQPPKLLIYRASTLSSGVSSRFSGSGSGTEFTLTISGVQPDDAATYYCQQGYRNSNVDNPFGGGTEMVVKRTVAAPSVFIFPPSDEQLKSGTASVVCLLNNFYPREAKVQWKVDNALQSGNSQESVTEQDSKDSTYSLSSTLTLSKADYEKHKVYACEVTHQGLSSPVTKSFNRGECGGGGSGGGGSGGGGSGGGGSADVVMTQTPASVSEPVGGTITINCQASENIYSSLAWYQQKPGQPPKLLMYDVSDLASGVPSRFSGSGSGTEFALTISDVQPDDAATYFCLGGYPSNNYRMAFGGGTEVVVKGGGGSGGGGSGGGGSGGGGSQSLEESGGGLVQPEGSLTLTCTASGFSFSSSAWICWVRQAPGKGLEWIGCINTVSVNAYYASWAKGRFTISKTSSTTVTLQVTSLTAADTATHFCARNPYNSLRLWGPGTLVTVSS
notes: LC format: the NKp46 scFv stands at the C terminus of the anti-CD79b light chain, with optimized Fc (G236A, A330L, I332E, EU numbering); also called chimeric CD79b/NKp46 bispecific antibody; NK cell engager

binding result [1]: binds
binding result [2]: binds
B2: ch44G2/ch6-1 (HC) Fc-optimized (bispecific antibody, human IgG1, kappa)
heavy: QSVRETGGGLVQPGGSLKLSCKASGFTINIDYWISWVRQAPGKGLEWIGIIDPGDGTTYFAIWVNGRFTISFDNTQNTVDLQMNSLTAADTATYFCVREFSASAYQYDLWGPGTLVTVSSASTKGPSVFPLAPSSKSTSGGTAALGCLVKDYFPEPVTVSWNSGALTSGVHTFPAVLQSSGLYSLSSVVTVPSSSLGTQTYICNVNHKPSNTKVDKRVEPKSCDKTHTCPPCPAPELLAGPSVFLFPPKPKDTLMISRTPEVTCVVVDVSHEDPEVKFNWYVDGVEVHNAKTKPREEQYNSTYRVVSVLTVLHQDWLNGKEYKCKVSNKALPLPEEKTISKAKGQPREPQVYTLPPSRDELTKNQVSLTCLVKGFYPSDIAVEWESNGQPENNYKTTPPVLDSDGSFFLYSKLTVDKSRWQQGNVFSCSVMHEALHNHYTQKSLSLSPGKGGGGSGGGGSGGGGSADVVMTQTPASVSEPVGGTITINCQASENIYSSLAWYQQKPGQPPKLLMYDVSDLASGVPSRFSGSGSGTEFALTISDVQPDDAATYFCLGGYPSNNYRMAFGGGTEVVVKGGGGSGGGGSGGGGSGGGGSQSLEESGGGLVQPEGSLTLTCTASGFSFSSSAWICWVRQAPGKGLEWIGCINTVSVNAYYASWAKGRFTISKTSSTTVTLQVTSLTAADTATHFCARNPYNSLRLWGPGTLVTVSS
light: DLVMTQTPSSVSAAVGGTVSINCRASEDIENYLAWYQQKPGQPPKLLIYRASTLSSGVSSRFSGSGSGTEFTLTISGVQPDDAATYYCQQGYRNSNVDNPFGGGTEMVVKRTVAAPSVFIFPPSDEQLKSGTASVVCLLNNFYPREAKVQWKVDNALQSGNSQESVTEQDSKDSTYSLSSTLTLSKADYEKHKVYACEVTHQGLSSPVTKSFNRGEC
notes: HC format: the NKp46 scFv stands at the C terminus of the heavy chain Fc, with optimized Fc; also called chimeric CD79b/NKp46 bispecific antibody; NK cell engager
